Test results published in patent US20240207377A1.

Target: Recombinant Human TACE/ADAM17 (930-ADB, R&D Systems) (human) (UniProt P78536)
Assay: cell-based or functional assay

Sequence of UniProt P78536 (P78536 215-671 limits assumed): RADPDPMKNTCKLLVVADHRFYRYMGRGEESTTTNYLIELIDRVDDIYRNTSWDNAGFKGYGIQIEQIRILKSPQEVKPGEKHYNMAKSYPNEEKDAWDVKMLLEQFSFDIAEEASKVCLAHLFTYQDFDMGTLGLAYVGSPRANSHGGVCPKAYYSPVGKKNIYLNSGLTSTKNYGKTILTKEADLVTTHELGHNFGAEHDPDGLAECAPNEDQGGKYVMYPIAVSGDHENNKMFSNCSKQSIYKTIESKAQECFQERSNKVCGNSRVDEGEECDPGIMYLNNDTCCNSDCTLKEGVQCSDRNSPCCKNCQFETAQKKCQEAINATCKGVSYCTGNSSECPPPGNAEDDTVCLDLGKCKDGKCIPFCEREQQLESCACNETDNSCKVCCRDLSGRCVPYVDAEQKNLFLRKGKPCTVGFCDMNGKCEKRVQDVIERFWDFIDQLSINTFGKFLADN

TACE activity in a cell-free assay (fluorogenic peptide substrate Mca-PLAQAV-Dpa-RSSSR-NH2), IC50: 15.3 µM
Substance: human alpha-1-antitrypsin (AAT) (Sigma Aldrich, batch A6150) (from UniProt P01009 25-418)
